Substitutions are numbered along the chain they refer to. Numbers in names are those of the source.
Experiments:
[1] = target: T1, recombinant rat IL-17A (SEQ ID NO: 85) (rat, UniProt Q61453 18-150); test: SPR (Biacore), captured antibody, antigen as analyte
T1 construct: also called rratIL-17A; rIL-17A
T1 sequence: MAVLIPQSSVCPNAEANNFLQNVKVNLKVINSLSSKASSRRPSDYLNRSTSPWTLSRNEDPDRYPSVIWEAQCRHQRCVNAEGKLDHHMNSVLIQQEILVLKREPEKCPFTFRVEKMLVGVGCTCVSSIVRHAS

[2] = target: T2, marmoset IL-17A (SEQ ID NO: 82) (marmoset monkey); test: as above
T2 construct: also called marmIL-17A
T2 chain: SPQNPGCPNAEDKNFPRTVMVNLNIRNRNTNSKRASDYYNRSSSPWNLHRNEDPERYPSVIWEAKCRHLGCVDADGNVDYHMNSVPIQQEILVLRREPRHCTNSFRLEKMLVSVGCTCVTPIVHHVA

[3] = target: T3, recombinant cynomolgus IL-17A (SEQ ID NO: 79) (cynomolgus monkey, UniProt Q16552 24-155 (human entry), limits assumed); test: as above
T3 construct: also called cynoIL-17A; cyno IL-17A
T3 chain: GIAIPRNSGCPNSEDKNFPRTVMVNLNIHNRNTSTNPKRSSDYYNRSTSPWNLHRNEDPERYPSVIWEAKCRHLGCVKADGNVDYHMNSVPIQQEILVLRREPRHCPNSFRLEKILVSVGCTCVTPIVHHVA

[4] = target: T4, recombinant human IL-17A (SEQ ID NO: 78) (human, UniProt Q16552 24-155, limits assumed); test: as above
T4 construct: homodimer; also called huIL-17A; hulL-17A
T4 sequence: T3 chain with A3T, S8P, S34N, V77I, K78N, R104P

[5] = target: T5, recombinant mouse IL-17A/F (R&D Systems Cat#5390-IL) (mouse, UniProt Q62386 26-158; Q7TNI7 29-161, limits assumed); test: as above
T5 construct: bought heterodimer; also called mIL-17A/F; rmIL-17A/F
T5 sequence (looked up) 1: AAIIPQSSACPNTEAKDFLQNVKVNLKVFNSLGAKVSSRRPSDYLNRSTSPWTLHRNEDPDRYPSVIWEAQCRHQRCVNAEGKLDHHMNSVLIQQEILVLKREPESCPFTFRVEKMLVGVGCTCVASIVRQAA
T5 sequence (looked up) 2: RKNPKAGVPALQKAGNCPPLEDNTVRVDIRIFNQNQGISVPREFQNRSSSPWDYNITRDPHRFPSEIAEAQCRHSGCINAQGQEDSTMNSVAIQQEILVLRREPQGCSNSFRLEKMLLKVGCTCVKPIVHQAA

[6] = target: T6, recombinant human IL-17A/F heterodimer (human, UniProt Q16552 24-155; Q96PD4 31-163, limits assumed); test: as above
T6 construct: heterodimer of an IL-17A subunit and an IL-17F subunit; also called huIL-17A/F; rhuIL-17A/F
T6 sequence (looked up) 1: T3 chain with A3T, S8P, S34N, V77I, K78N, R104P
T6 sequence (looked up) 2: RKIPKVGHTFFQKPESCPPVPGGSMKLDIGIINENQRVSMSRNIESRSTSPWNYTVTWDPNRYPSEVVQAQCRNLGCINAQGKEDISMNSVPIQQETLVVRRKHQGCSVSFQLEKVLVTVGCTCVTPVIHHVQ

[7] = target: T7, recombinant cynomolgus IL-17F (SEQ ID NO: 80) (cynomolgus monkey, UniProt Q96PD4 31-163 (human entry), limits assumed); test: ELISA, coated antigen
T7 construct: also called cynoIL-17F; cyno IL-17F
T7 chain: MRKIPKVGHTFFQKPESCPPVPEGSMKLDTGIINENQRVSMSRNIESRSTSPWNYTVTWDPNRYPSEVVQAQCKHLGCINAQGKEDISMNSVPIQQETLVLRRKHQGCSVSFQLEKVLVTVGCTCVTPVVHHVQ

[8] = target: T8, recombinant human IL-17F (SEQ ID NO: 77) (human, UniProt Q96PD4 31-163); test: ELISA, coated antigen
T8 construct: homodimer; also called huIL-17F; rhuIL-17F
T8 sequence: T7 chain with E23G, T30I, K74R, H75N, L101V, V130I

[9] = target: T9, human IL-17A (construct not stated) (human, UniProt Q16552 24-155, limits assumed); test: cell-based or functional assay
T9 sequence: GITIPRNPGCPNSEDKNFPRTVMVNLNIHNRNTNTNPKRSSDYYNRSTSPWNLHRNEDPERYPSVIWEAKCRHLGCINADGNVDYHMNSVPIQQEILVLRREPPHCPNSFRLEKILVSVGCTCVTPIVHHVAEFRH

B1: XAB4 (antibody, human IgG1, kappa, V domains shown)
VH: EVQLVESGGDLVQPGGSLRLSCAASGFTFSSYWMSWVRQAPGKGLEWVANIKQDGSEKYYVDSVKGRFTISRDNAKNSLYLQMNSLRAEDTAVYYCARDRGSLYYWGQGTLVTVSS
VL: AIQLTQSPSSLSASVGDRVTITCRPSQGINWELAWYQQKPGKAPKLLIYDASSLEQGVPSRFSGSGSGTDFTLTISSLQPEDFATYYCQQFNSYPLTFGGGTKVEIKR
notes: also called MB435 N56Q
**Q.** With B1 as the binder, how does the Kd [1] read?
**A.** 0.084 nM

**Q.** What about the Kd [2] of the same binder?
**A.** 0.018 nM

**Q.** And the Kd [3]?
**A.** 0.031 nM

**Q.** What about the Kd [4] of the same binder?
**A.** 5.7 pM

**Q.** What about the Kd [5] of the same binder?
**A.** 0.26 nM

**Q.** And the Kd [6]?
**A.** < 0.011 nM

**Q.** Does B1 bind [7]?
**A.** no binding (tested: 1 µg/ml)

**Q.** Does B1 bind [8]?
**A.** no binding (tested: 1 µg/ml)

**Q.** And the “EC50, in vitro neutralization activity, T = 0 weeks” value [9]?
**A.** 48 ng/mL

**Q.** And the “EC50, in vitro neutralization activity, T = 4 weeks at pH 8, 40°C (forced deamidation)” value [9]?
**A.** 47 ng/ml
